This passage reports self-cleavage results from the RNAGym collection of RNA variant scans (doi:10.7554/elife.80360).

To fix the notation:
B1: HDV Ribozyme (parent)
chain: GGCCGGCAUGGUCCCAGCCUCCUCGCUGGCGCCGGCUGGGCAACAUUCCGAGGGGACCGUCCCCUCGGUAAUGGCGAAUGGGACCCA

This data set covers variants of B1. The data set can be described thus: self-cleavage, relative activity (ratio to wild type); higher = more cleavage; co-transcriptional.
On to GGCCGGCAUGGUCCCAGCCUCCUAGCUGGCGCCGGCUGGGCAACAUUCCGAGGGGACCGUCCCAUCGGUAAUGGCGAAUGGGACCCA, for which the self-cleavage came out at 0.803.

GGCCGGCAUGGUCCCAGCCUCCGCGCUGGCGCCGGCUGGGCAACAUUCCGAGGGGACCGUCCCCUCGGUAAUGGCGAAUGGUACCCA: the self-cleavage is 0.17.

As for GGCCGGCAUGGUCCCAGCCUCCGCGCUGGCGCCGGCUGGGCAACAUUCCGAGGGGACCGUCCCCUCGGUAAUGGCGAAUGGAACCCA, the self-cleavage stood at 0.0449.

On to GGCCGGCAUGGUCCCAGCCUCCUAGCUGGCGCCGGUUGGGCAACAUUCCGAGGGGACCGUCCCCUCGGUAAUGGCGAAUGGGACCCA, for which the self-cleavage stood at 0.254.

Consider GGCCGGCAUGGUCCCAGCCUCCUAGCUGGCGCCGGGUGGGCAACAUUCCGAGGGGACCGUCCCCUCGGUAAUGGCGAAUGGGACCCA, for which the self-cleavage is 0.0678.

As for GGCCGGCAUGGUCCCAGCCUCCGCGCUGGCGCCGGCUGGGCAACAUUCCGAGGGGACCGUCCCCUCGGUAAUGGCAAAUGGGACCCA, the self-cleavage turned out to be 0.895.

For GGCCGGCAUGGUCCCAGCCUCCGCGCUGGCGCCGGCUGGGCAACAUUCCGAGGGGACCGUCCCCUCCGUAAUGGCGAAUGGGACCCA, the self-cleavage was 0.59.

GGCCGGCAUGGUCCCAGCCUCCGCGCUGGCGCCGGCUGGGCAACAUUCCGAGGGGACCGUCCCCUCGGUAAUCGCGAAUGGGACCCA: the self-cleavage is 0.0773.

Regarding GGCCGGCAUGGUCCCAGCCUCCGCGCUGGCGCCGGCUGGGCAACAUUCCGAGGGGACCGUCCCCUCGGUAAUUGCGAAUGGGACCCA, the self-cleavage is 0.0604.

On to GGCCGGCAUGGUCCCAGCCUCCGCGCUGGCGCCGGCUGGGCAACAUUCCGAGGGGACCGUCCCCUCGGUAAUAGCGAAUGGGACCCA, for which the self-cleavage came to 0.259.

GGCCGGCAUGGUCCCAGCCUCCUAGCUGGCGCCGGCUGGGCCACAUUCCGAGGGGACCGUCCCCUCGGUAAUGGCGAAUGGGACCCA: the self-cleavage is 0.0639.

GGCCGGCAUGGUCCCAGCCUCCGCGCUGGCGCCGGCUGGGCAACAUUCCGAGGGGACCUUCCCCUCGGUAAUGGCGAAUGGGACCCA: the self-cleavage was determined as 0.886.

Consider GGCCGGCAUGGUCCCAGCCUCCGCGCUGGCGCCGGCUGGGCAACAUUCCGAGGGGACCGUCCCCUCGGUAAUGCCGAAUGGGACCCA, for which the self-cleavage stood at 0.188.

On to GGCCGGCAUGGUCCCAGCCUCCGCGCUGGCGCCGGCUGGGCAACAUUCCGAGGGGACCGUCCCCUCGGUAAUGUCGAAUGGGACCCA, for which the self-cleavage was found to be 0.0863.

As for GGCCGGCAUGGUCCCAGCCUCCUAGCUGGCCCCGGCUGGGCAACAUUCCGAGGGGACCGUCCCCUCGGUAAUGGCGAAUGGGACCCA, the self-cleavage is 0.0583.

In the case of GGCCGGCAUGGUCCCAGCCUCCGCGCUGGCGCCGGCUGGGCAACAUUCCGAGGGGACCGUCCCCUCGGUAAUGGUGAAUGGGACCCA, the self-cleavage came to 0.089.

As for GGCCGGCAUGGUCCCAGCCUCCGCGCGGGCGCCGGCUGGGCAACAUUCCGAGGGGACCGUCCCCUCGGUAAUGGCGAAUGGGACCCA, the self-cleavage amounted to 0.529.

Regarding GGCCGGCAUGGUCCCAGCCUCCUAGCUGGCGCCGGCUGGGCAACAUUCCGAGGGGACCGUCCCCUCGGUAAUGGCGAAUGGGACACA, the self-cleavage is 0.591.

For GGCCGGCAUGGUCCCAGCCUCCGCGCUAGCGCCGGCUGGGCAACAUUCCGAGGGGACCGUCCCCUCGGUAAUGGCGAAUGGGACCCA, the self-cleavage is 0.0941.

Consider GGCCGGCAUGGUCCCAGCCUCCGCGCUUGCGCCGGCUGGGCAACAUUCCGAGGGGACCGUCCCCUCGGUAAUGGCGAAUGGGACCCA, for which the self-cleavage was found to be 0.0326.

As for GGCCGGCAUGGUCCCAGCCUCCUAGCUGGCGCCGGCUGGGCAACAUUCCGAGGGGACCGUACCCUCGGUAAUGGCGAAUGGGACCCA, the self-cleavage stood at 0.906.

For GGCCGGCAUGGUCCCAGCCUCCGCGCUGGCGCCGGCUGGGCAACAUUCCGAGGGGACCGUCCCCUCGCUAAUGGCGAAUGGGACCCA, the self-cleavage was 0.482.

Turning to GGCCGGCAUGGUCCCAGCCUCCGCGCUGGCGCCGGCUGGGCAACAUUCCGAGGGGACCGUCCCCUCGUUAAUGGCGAAUGGGACCCA, the self-cleavage was determined as 0.969.

In the case of GGCCGGCAUGGUCCCAGCCUCCUAGCUGGCGCCAGCUGGGCAACAUUCCGAGGGGACCGUCCCCUCGGUAAUGGCGAAUGGGACCCA, the self-cleavage is 0.166.

With GGCCGGCAUGGUCCCAGCCUCCUAGCUGGCGCCCGCUGGGCAACAUUCCGAGGGGACCGUCCCCUCGGUAAUGGCGAAUGGGACCCA, the self-cleavage is 0.0852.

Take GGCCGGCAUGGUCCCAGCCUCCGCGCUGGCGCCGGCUGGGCAACAUUCCGAGGGGACCGUCCCCUCGGUAAUGGCGAAGGGGACCCA: the self-cleavage came to 0.192.

Turning to GGCCGGCAUGGUCCCAGCCUCCGCGCUGGCGCCGGCUGGGCAACAUUCCGAGGGGACCGUCCCCUCGGUAAUGGCGAACGGGACCCA, the self-cleavage is 0.125.

Turning to GGCCGGCAUGGUCCCAGCCUCCGCGCUGGCGCCGGCUGGGCAACAUUCCGAGGGGACCGUCCCCUCGGUAAUGGCGAAUGGGACGCA, the self-cleavage came to 0.643.

GGCCGGCAUGGUCCCAGCCUCCGCGCUGGCGCCGGCUGGGCAACAUUCCGAGGGGACCGUCCCCUCGGUAAUGGCGAAUGGGACUCA: the self-cleavage stood at 0.898.

In the case of GGCCGGCAUGGUCCCAGCCUCCUAGCUGGCGCCGGCUGGGCAACAUUCCGAGGGGACCGUCUCCUCGGUAAUGGCGAAUGGGACCCA, the self-cleavage came to 0.89.

On to GGCCGGCAUGGUCCCAGCCUCCUAGCUGGCGCCGGCUGGGCAACAUUCCGAGGGGACCGUCACCUCGGUAAUGGCGAAUGGGACCCA, for which the self-cleavage stood at 0.946.

Consider GGCCGGCAUGGUCCCAGCCUCCUAGCUGGCGCCGGCUGGGCAACAUUCCGAGGGGAGCGUCCCCUCGGUAAUGGCGAAUGGGACCCA, for which the self-cleavage came to 0.869.

As to GGCCGGCAUGGUCCCAGCCUCCGCGCUGGCGCCAGCUGGGCAACAUUCCGAGGGGACCGUCCCCUCGGUAAUGGCGAAUGGGACCCA, the self-cleavage came out at 0.0811.

For the variant GGCCGGCAUGGUCCCAGCCUCCUAGCUGGCGCCGGCUGGGCAACAUUCCGAGGGGACCGUCCCCUCGGUACUGGCGAAUGGGACCCA, the self-cleavage was 0.38.

Consider GGCCGGCAUGGUCCCAGCCUCCUAGCUGGCGCCGGCUGGGCAACAUUCCGAGGGGACCGUCCCCUCGGUAUUGGCGAAUGGGACCCA, for which the self-cleavage stood at 0.731.

On to GGCCGGCAUGGUCCCAGCCUCCUAGCUGGCGCCGGCUGGGCAACAUUCCGAGGGGACCGUCCCCUCGGUAGUGGCGAAUGGGACCCA, for which the self-cleavage was determined as 0.61.

Turning to GGCCGGCAUGGUCCCAGCCUCCGCGCUGGCGCCGGCUGGGCAACAUUCCUAGGGGACCGUCCCCUCGGUAAUGGCGAAUGGGACCCA, the self-cleavage worked out at 0.607.

Consider GGCCGGCAUGGUCCCAGCCUCCGCGCUGGCGCCGGCUGCGCAACAUUCCGAGGGGACCGUCCCCUCGGUAAUGGCGAAUGGGACCCA, for which the self-cleavage turned out to be 0.158.

GGCCGGCAUGGUCCCAGCCUCCGCGCUGGCGCCGGCUGGGCAACAGUCCGAGGGGACCGUCCCCUCGGUAAUGGCGAAUGGGACCCA: the self-cleavage was found to be 0.356.

As for GGCCGGCAUGGUCCCAGCCUCCUAGCUGGCGCCGCCUGGGCAACAUUCCGAGGGGACCGUCCCCUCGGUAAUGGCGAAUGGGACCCA, the self-cleavage came out at 0.0692.

Take GGCCGGCAUGGUCCCAGCCUCCUAGCUGGAGCCGGCUGGGCAACAUUCCGAGGGGACCGUCCCCUCGGUAAUGGCGAAUGGGACCCA: the self-cleavage came out at 0.237.

Take GGCCGGCAUGGUCCCAGCCUCCGCGCUGGCCCCGGCUGGGCAACAUUCCGAGGGGACCGUCCCCUCGGUAAUGGCGAAUGGGACCCA: the self-cleavage came out at 0.178.

GGCCGGCAUGGUCCCAGCCUCCGCGCUGGCGCCGGCUGGGCAACAUUCCGAGGUGACCGUCCCCUCGGUAAUGGCGAAUGGGACCCA: the self-cleavage is 0.9.

For GGCCGGCAUGGUCCCAGCCUCCGCGCUGGCGCCGGCUGGGCAACAUUCCGAGGAGACCGUCCCCUCGGUAAUGGCGAAUGGGACCCA, the self-cleavage was found to be 0.928.

With GGCCGGCAUGGUCCCAGCCUCCUAGCUGGCGCCGGCUGGGCAACAUUCCGAGGGGUCCGUCCCCUCGGUAAUGGCGAAUGGGACCCA, the self-cleavage came to 0.872.

Take GGCCGGCAUGGUCCCAGCCUCCUAGCUGGCGCCGGCUGGGCAACAUUCCGAGGGGCCCGUCCCCUCGGUAAUGGCGAAUGGGACCCA: the self-cleavage came to 0.966.

For the variant GGCCGGCAUGGUCCCAGCCUCCUAGCUGGCGCCGGCUGGGCAACAUUCCGAGGGGACCGUCCCCUCGGUAAUGGCGAAUGGGACCCA, the self-cleavage came out at 0.767.

GGCCGGCAUGGUCCCAGCCUCCUAGCUGGCGACGGCUGGGCAACAUUCCGAGGGGACCGUCCCCUCGGUAAUGGCGAAUGGGACCCA: the self-cleavage is 0.106.

In the case of GGCCGGCAUGGUCCCAGCCUCCUAGCUGGCGCCGGCUGGGCAACAUUCCGAGGGGACCGUCCCCUCGGUGAUGGCGAAUGGGACCCA, the self-cleavage came to 0.804.

On to GGCCGGCAUGGUCCCAGCCUCCUAGCUGGCGCCGGCUGGGCAACAUUCCGCGGGGACCGUCCCCUCGGUAAUGGCGAAUGGGACCCA, for which the self-cleavage is 0.516.

Turning to GGCCGGCAUGGUCCCAGCCUCCUAGCUGGCGCCGGCUGGGCAACAUUCCGAGGGGACCGUCCCCUCGGUAAUGGCGAAUGGGAGCCA, the self-cleavage is 0.563.

As for GGCCGGCAUGGUCCCAGCCUCCUAGCUGGCGCCGGCUGGGCAACAUUCUGAGGGGACCGUCCCCUCGGUAAUGGCGAAUGGGACCCA, the self-cleavage stood at 0.623.

Regarding GGCCGGCAUGGUCCCAGCCUCCGCGCUGGCGCCGGCUGGGCAACAUUCCGAGGGGACCGCCCCCUCGGUAAUGGCGAAUGGGACCCA, the self-cleavage was 0.831.

As for GGCCGGCAUGGUCCCAGCCUCCUAGCUGGCGCCGGCUGGGCAAAAUUCCGAGGGGACCGUCCCCUCGGUAAUGGCGAAUGGGACCCA, the self-cleavage was 0.217.

Turning to GGCCGGCAUGGUCCCAGCCUCCUAGCUGGCGCCGGCUGGGGAACAUUCCGAGGGGACCGUCCCCUCGGUAAUGGCGAAUGGGACCCA, the self-cleavage is 0.536.

Consider GGCCGGCAUGGUCCCAGCCUCCGCGCUGGCGCCGGCUGGGCAACAUUCCGAUGGGACCGUCCCCUCGGUAAUGGCGAAUGGGACCCA, for which the self-cleavage is 0.585.

Turning to GGCCGGCAUGGUCCCAGCCUCCGCGCUGGCGCCGGCUGGGCAACAUUCCGAGGGGACCGUCCCCGCGGUAAUGGCGAAUGGGACCCA, the self-cleavage was 0.674.

As for GGCCGGCAUGGUCCCAGCCUCCGCGCUGACGCCGGCUGGGCAACAUUCCGAGGGGACCGUCCCCUCGGUAAUGGCGAAUGGGACCCA, the self-cleavage is 0.

In the case of GGCCGGCAUGGUCCCAGCCUCCGCCCUGGCGCCGGCUGGGCAACAUUCCGAGGGGACCGUCCCCUCGGUAAUGGCGAAUGGGACCCA, the self-cleavage stood at 0.

For GGCCGGCAUGGUCCCAGCCUCCUAGCUGGCGCCGGCUGGGCAACAUUCCGAGGGGACCGUCCCCUCGGUAAUGGCGACUGGGACCCA, the self-cleavage was determined as 0.133.

In the case of GGCCGGCAUGGUCCCAGCCUCCUAGCUGUCGCCGGCUGGGCAACAUUCCGAGGGGACCGUCCCCUCGGUAAUGGCGAAUGGGACCCA, the self-cleavage was determined as 0.0369.

Consider GGCCGGCAUGGUCCCAGCCUCCUAGCUCGCGCCGGCUGGGCAACAUUCCGAGGGGACCGUCCCCUCGGUAAUGGCGAAUGGGACCCA, for which the self-cleavage was 0.0773.

Turning to GGCCGGCAUGGUCCCAGCCUCCGCGCUGGCGCCGGCUGGGCAACAUUCCGAGGGGACCGUCCCCUCGGUAAUGGCGAAUGGGAACCA, the self-cleavage is 0.712.

In the case of GGCCGGCAUGGUCCCAGCCUCCGCGCUGGCGCCGGCUGGGCAACAUUCCGAGGGGACCGUCCCCUCGGUAACGGCGAAUGGGACCCA, the self-cleavage was found to be 0.391.
